Data from IntAct's records for PubMed 29892012.

B1: Ligand of Numb protein X 2 (Homo sapiens), Q8N448 (parent)
chain: MGTTSDEMVSVEQTSSSSLNPLCFECGQQHWTRENHLYNYQNEVDDDLVCHICLQPLLQPLDTPCGHTFCYKCLRNFLQEKDFCPLDRKRLHFKLCKKSSILVHKLLDKLLVLCPFSSVCKDVMQRCDLEAHLKNRCPGASHRRVALERRKTSRTQAEIENENGPTLLDPAGTLSPEADCLGTGAVPVERHLTSASLSTWSEEPGLDNPAFEESAGADTTQQPLSLPEGEITTIEIHRSNPYIQLGISIVGGNETPLINIVIQEVYRDGVIARDGRLLAGDQILQVNNYNISNVSHNYARAVLSQPCNTLHLTVLRERRFGNRAHNHSDSNSPREEIFQVALHKRDSGEQLGIKLVRRTDEPGVFILDLLEGGLAAQDGRLSSNDRVLAINGHDLKYGTPELAAQIIQASGERVNLTIARPGKPQPGNTIREAGNHSSSSQHHTPPPYYSRPSSHKDLTQCVTCQEKHITVKKEPHESLGMTVAGGRGSKSGELPIFVTSVPPHGCLARDGRIKRGDVLLNINGIDLTNLSHSEAVAMLKASAASPAVALKALEVQIVEEATQNAEEQPSTFSENEYDASWSPSWVMWLGLPSTLHSCHDIVLRRSYLGSWGFSIVGGYEENHTNQPFFIKTIVLGTPAYYDGRLKCGDMIVAVNGLSTVGMSHSALVPMLKEQRNKVTLTVICWPGSLV
partner: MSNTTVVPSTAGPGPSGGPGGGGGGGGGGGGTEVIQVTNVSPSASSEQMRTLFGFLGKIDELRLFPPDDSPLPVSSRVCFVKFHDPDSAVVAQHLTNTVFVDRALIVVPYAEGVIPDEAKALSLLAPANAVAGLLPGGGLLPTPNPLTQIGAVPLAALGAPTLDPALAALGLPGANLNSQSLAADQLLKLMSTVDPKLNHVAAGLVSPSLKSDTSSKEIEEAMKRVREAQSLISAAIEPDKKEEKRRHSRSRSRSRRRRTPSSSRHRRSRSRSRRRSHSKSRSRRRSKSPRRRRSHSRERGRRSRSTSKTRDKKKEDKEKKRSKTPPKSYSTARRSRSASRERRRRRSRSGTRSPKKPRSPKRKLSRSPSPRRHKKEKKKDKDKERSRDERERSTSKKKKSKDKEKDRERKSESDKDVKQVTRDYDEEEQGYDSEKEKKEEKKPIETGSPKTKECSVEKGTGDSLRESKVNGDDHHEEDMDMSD
B2: Leucine-zipper-like transcriptional regulator 1 (Homo sapiens), Q8N653 (parent)
chain: MAGPGSTGGQIGAAALAGGARSKVAPSVDFDHSCSDSVEYLTLNFGPFETVHRWRRLPPCDEFVGARRSKHTVVAYKDAIYVFGGDNGKTMLNDLLRFDVKDCSWCRAFTTGTPPAPRYHHSAVVYGSSMFVFGGYTGDIYSNSNLKNKNDLFEYKFATGQWTEWKIEGRLPVARSAHGATVYSDKLWIFAGYDGNARLNDMWTIGLQDRELTCWEEVAQSGEIPPSCCNFPVAVCRDKMFVFSGQSGAKITNNLFQFEFKDKTWTRIPTEHLLRGSPPPPQRRYGHTMVAFDRHLYVFGGAADNTLPNELHCYDVDFQTWEVVQPSSDSEVGGAEVPERACASEEVPTLTYEERVGFKKSRDVFGLDFGTTSAKQPTQPASELPSGRLFHAAAVISDAMYIFGGTVDNNIRSGEMYRFQFSCYPKCTLHEDYGRLWESRQFCDVEFVLGEKEECVQGHVAIVTARSRWLRRKITQARERLAQKLEQEAAPVPREAPGVAAGGARPPLLHVAIREAEARPFEVLMQFLYTDKIKYPRKGHVEDVLLIMDVYKLALSFQLCRLEQLCRQYIEASVDLQNVLVVCESAARLQLSQLKEHCLNFVVKESHFNQVIMMKEFERLSSPLIVEIVRRKQQPPPRTPLDQPVDIGTSLIQDMKAYLEGAGAEFCDITLLLDGHPRPAHKAILAARSSYFEAMFRSFMPEDGQVNISIGEMVPSRQAFESMLRYIYYGEVNMPPEDSLYLFAAPYYYGFYNNRLQAYCKQNLEMNVTVQNVLQILEAADKTQALDMKRHCLHIIVHQFTKVSKLPTLRSLSQQLLLDIIDSLASHISDKQCAELGADI

Variants of: B1
Details: with srs11_human SRSF11, Q05519

| Variant | effect of a mutation on the interaction |
| --- | --- |
| P669A | with no effect |

Variants of: B2
Details: with gcp4_human TUBGCP4, Q9UGJ1
Sequence of gcp4_human TUBGCP4, Q9UGJ1 (Q9UGJ1 whole entry): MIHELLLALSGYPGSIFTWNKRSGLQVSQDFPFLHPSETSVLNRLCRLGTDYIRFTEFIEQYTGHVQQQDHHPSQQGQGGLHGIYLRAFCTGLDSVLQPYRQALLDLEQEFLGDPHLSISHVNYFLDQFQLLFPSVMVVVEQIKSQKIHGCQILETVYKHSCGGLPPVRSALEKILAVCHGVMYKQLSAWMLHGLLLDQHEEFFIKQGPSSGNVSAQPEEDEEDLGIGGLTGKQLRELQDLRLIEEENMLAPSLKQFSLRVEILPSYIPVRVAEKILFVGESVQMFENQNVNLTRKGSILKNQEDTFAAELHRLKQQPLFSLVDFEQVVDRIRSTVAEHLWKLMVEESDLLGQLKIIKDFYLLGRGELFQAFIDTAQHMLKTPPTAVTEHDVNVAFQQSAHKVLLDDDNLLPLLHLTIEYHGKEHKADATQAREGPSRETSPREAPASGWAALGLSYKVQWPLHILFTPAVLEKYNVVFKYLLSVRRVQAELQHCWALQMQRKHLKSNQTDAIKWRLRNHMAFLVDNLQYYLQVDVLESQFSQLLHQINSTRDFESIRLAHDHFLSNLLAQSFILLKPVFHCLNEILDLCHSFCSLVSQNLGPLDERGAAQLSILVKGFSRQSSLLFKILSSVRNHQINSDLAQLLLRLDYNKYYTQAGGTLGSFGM

| Variant | effect of a mutation on the interaction |
| --- | --- |
| G663V | disrupting interaction strength |

Variants of: B2
Details: with gcp4_human TUBGCP4, Q9UGJ1
Remark: another data set of the same source

| Variant | effect of a mutation on the interaction |
| --- | --- |
| E721K | with no effect |
